Assay results as given in the supplement of paper PMC12338614.

B1: library; numbered along this chain (parent)
chain: MEVVDPQQLGMFTEGELMSVGMDTFIHRIDSTEVIYQPRRKRAKLIGKYLMGDLLGEGSYGKVKEVLDSETLCRRAVKILKKKKLRRIPNGEANVKKEIQLLRRLRHKNVIQLVDVLYNEEKQKMYMVMEYCVCGMQEMLDSVPEKRFPVCQAHGYFCQLIDGLEYLHSQGIVHKDIKPGNLLLTTGGTLKISDLGVAEALHPFAADDTCRTSQGSPAFQPPEIANGLDTFSGFKVDIWSAGVTLYNITTGLYPFEGDNIYKLFENIGKGSYAIPGDCGPPLSDLLKGMLEYEPAKRFSIRQIRQHSWFRKKHPPAEAPVPIPPSPDTKDRWRSMTVVPYLEDLHGADEDEDLFDIEDDIIYTQDFTVPGQVPEEEASHNGQRRGLPKAVCMNGTEAAQLSTKSRAEGRAPNPARKACSASSKIRRLSACKQQ

Variants of: B1
Assay: STK11 functional score (HeLa growth suppression), rescaled enrichment; synonymous median = 1, nonsense median = 0 (normalised score)
Conditions: with HeLa; variant type: missense
Method in brief: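 The functional score takes the post/pre-selection log ratio, corrects it to wild type, rescales it to synonymous and nonsense medians, and merges it over codons and replicate transfections, with error from bootstrapping. Counts came from tiled gDNA amplicons sequenced on NextSeq (~2 million reads per tile). The libraries were POPCode codon-randomised, codon-optimised STK11 integrated by Bxb1 at an AAVS1 landing pad in HeLa, three regions with three transfections each.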

STK11 functional score, by site and new letter:
A429: K 1.49 | L 1.48 | V 1.47 | G 1.12 | C 1.62 | Y 1.49 | I 1.63 | W 1.21 | E 1.55 | D 1.52 | Q 1.56 | P 0.559 | S 1.29 | R 1.5 | T 0.896
K431: C 1.59 | Y 1.48 | M 1.25 | S 1.64 | L 1.6 | F 1.59
R426: A 0.525 | N 1.58 | I 1.15 | V 1.62 | F 1.3 | K 1.49 | L 1.4 | S 1.5 | Y 1.54 | H 1.61 | C 1.12 | G 1.1 | D 1.42 | T 1.17
C430: F 1.48 | S 1.56 | G 1.55 | V 1.03 | W 1.02
Q432: Y 1.63 | G 1.61 | D 1.46 | L 1.55 | R 1.6 | W 1.59
R425: G 1.55 | Y 1.54 | D 1.61 | E 1.23 | L 1.4 | F 1.11 | T 1.52 | V 0.938 | P 1.51 | M 1.51 | W 1.03 | N 1.62 | S 1.54 | I 0.977 | H 1.56
S428: K 0.386 | N 0.872 | W 1.62 | A 1.14 | F 1.61 | D 1.21 | C 1.4 | Y 1.39 | I 1.62 | V 1.56 | E 1.63 | G 1.6 | L 0.874 | T 1.56
Q433: R 0.937 | H 1.2
L427: S 1.55 | R 1.56 | T 1.59 | Y 0.805 | C 0.695 | N 1.63 | A 1.6 | W 1.53 | K 1.53 | H 1.4 | V 1.21 | I 1.36 | F 1.31 | E 1.53
